The source of these data is patent US20250136713A1 (DENALI THERAPEUTICS, published 2025).

To fix the notation:
B1: Anti-HER2_D2 heavy chain comprising the VH region of SEQ ID NO: 2 paired with Anti-HER2_D4 light chain control (SEQ ID NO: 87) (antibody, V domains shown)
VH: EVQLVESGGGLVQPGGSLRLSCAASGFTFTDYTMDWVRQAPGKGLEWVADVNPNSGGSIYNQRFKGRFTLSVDRSKNTLYLQMNSLRAEDTAVYYCARNLGPLFYFDYWGQGTLVTVSS
VL: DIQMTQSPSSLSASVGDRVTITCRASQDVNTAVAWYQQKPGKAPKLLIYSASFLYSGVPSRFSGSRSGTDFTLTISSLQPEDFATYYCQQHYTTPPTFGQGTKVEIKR
B2: Anti-HER2_D4 light chain control (SEQ ID NO: 87) paired with Anti-HER2_D2 heavy chain control (SEQ ID NO: 92) (antibody, human IgG1, kappa, V domains shown)
VH: B1 VH with L103S
VL: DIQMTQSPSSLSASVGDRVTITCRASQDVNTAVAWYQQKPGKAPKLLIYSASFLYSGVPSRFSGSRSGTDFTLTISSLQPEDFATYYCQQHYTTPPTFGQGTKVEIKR
B3: Anti-HER2_D2 heavy chain comprising the VH region of SEQ ID NO: 63 paired with Anti-HER2_D4 light chain control (SEQ ID NO: 87) (antibody, V domains shown)
VH: B1 VH with T28H, L103S
VL: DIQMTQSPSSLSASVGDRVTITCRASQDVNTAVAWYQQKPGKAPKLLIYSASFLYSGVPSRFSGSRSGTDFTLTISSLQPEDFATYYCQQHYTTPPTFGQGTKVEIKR
B4: Anti-HER2_D2 heavy chain comprising the VH region of SEQ ID NO: 1 paired with Anti-HER2_D4 light chain control (SEQ ID NO: 87) (antibody, V domains shown)
VH: B1 VH with G57Q, L103S
VL: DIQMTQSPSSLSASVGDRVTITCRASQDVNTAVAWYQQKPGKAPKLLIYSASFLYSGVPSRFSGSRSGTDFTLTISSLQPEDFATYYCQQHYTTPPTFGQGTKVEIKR
B5: Anti-HER2_D2 heavy chain comprising the VH region of SEQ ID NO: 60 paired with Anti-HER2_D4 light chain control (SEQ ID NO: 87) (antibody, V domains shown)
VH: B1 VH with T28N, L103S
VL: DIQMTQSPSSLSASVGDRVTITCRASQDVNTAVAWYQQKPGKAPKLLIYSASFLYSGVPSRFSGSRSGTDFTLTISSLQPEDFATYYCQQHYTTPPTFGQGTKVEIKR
B6: Anti-HER2_D2 heavy chain comprising the VH region of SEQ ID NO: 69 paired with Anti-HER2_D4 light chain control (SEQ ID NO: 87) (antibody, V domains shown)
VH: B1 VH with L103D
VL: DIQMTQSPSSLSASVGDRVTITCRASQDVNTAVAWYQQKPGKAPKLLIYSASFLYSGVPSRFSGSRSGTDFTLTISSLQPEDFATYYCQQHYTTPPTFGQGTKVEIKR
B7: Anti-HER2_D2 heavy chain comprising the VH region of SEQ ID NO: 64 paired with Anti-HER2_D4 light chain control (SEQ ID NO: 87) (antibody, V domains shown)
VH: B1 VH with Q62R, L103S
VL: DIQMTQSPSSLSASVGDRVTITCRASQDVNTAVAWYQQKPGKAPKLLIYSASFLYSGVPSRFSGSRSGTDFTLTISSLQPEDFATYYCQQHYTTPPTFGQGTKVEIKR
B8: Anti-HER2_D2 heavy chain comprising the VH region of SEQ ID NO: 67 paired with Anti-HER2_D4 light chain control (SEQ ID NO: 87) (antibody, V domains shown)
VH: B1 VH with L103W
VL: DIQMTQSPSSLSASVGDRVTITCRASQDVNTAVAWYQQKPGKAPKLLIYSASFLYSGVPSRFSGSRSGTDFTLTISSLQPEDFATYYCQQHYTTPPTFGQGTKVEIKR
B9: Anti-HER2_D2 heavy chain comprising the VH region of SEQ ID NO: 68 paired with Anti-HER2_D4 light chain control (SEQ ID NO: 87) (antibody, V domains shown)
VH: B1 VH with L103F
VL: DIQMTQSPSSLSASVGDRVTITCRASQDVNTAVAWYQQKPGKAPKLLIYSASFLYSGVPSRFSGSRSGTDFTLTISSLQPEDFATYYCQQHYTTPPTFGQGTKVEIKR
B10: Anti-HER2_D2 heavy chain comprising the VH region of SEQ ID NO: 61 paired with Anti-HER2_D4 light chain control (SEQ ID NO: 87) (antibody, V domains shown)
VH: B1 VH with T28K, L103S
VL: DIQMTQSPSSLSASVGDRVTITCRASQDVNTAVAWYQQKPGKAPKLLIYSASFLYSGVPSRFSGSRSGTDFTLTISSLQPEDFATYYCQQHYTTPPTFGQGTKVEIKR
B11: Anti-HER2_D2 heavy chain comprising the VH region of SEQ ID NO: 65 paired with Anti-HER2_D4 light chain control (SEQ ID NO: 87) (antibody, V domains shown)
VH: B1 VH with Q62H, L103S
VL: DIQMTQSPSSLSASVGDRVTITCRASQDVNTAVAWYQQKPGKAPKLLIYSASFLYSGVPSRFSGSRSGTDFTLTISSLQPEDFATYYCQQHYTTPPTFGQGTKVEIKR
B12: Anti-HER2_D2 heavy chain comprising the VH region of SEQ ID NO: 66 paired with Anti-HER2_D4 light chain control (SEQ ID NO: 87) (antibody, V domains shown)
VH: B1 VH with Q62T, L103S
VL: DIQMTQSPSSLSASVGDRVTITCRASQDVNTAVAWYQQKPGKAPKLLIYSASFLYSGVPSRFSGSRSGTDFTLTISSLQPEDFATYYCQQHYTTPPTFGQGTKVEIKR
B13: Anti-HER2_D2 heavy chain comprising the VH region of SEQ ID NO: 70 paired with Anti-HER2_D4 light chain control (SEQ ID NO: 87) (antibody, V domains shown)
VH: B1 VH with L103Y
VL: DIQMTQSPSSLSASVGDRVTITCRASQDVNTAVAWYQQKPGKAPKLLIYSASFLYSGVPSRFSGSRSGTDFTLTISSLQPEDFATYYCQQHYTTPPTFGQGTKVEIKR
B14: Anti-HER2_D2 heavy chain comprising the VH region of SEQ ID NO: 62 paired with Anti-HER2_D4 light chain control (SEQ ID NO: 87) (antibody, V domains shown)
VH: B1 VH with T28M, L103S
VL: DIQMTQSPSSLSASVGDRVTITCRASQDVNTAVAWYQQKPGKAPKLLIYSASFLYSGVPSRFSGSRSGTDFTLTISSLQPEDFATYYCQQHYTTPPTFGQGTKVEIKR
B15: Anti-HER2_D2 light chain control (SEQ ID NO: 94) paired with Anti-HER2_D4 heavy chain control (SEQ ID NO: 93) (antibody, human IgG1, kappa, V domains shown)
VH: not shown
VL: DIQMTQSPSSLSASVGDRVTITCKASQDVSIGVAWYQQKPGKAPKLLIYSASYRYTGVPSRFSGSGSGTDFTLTISSLQPEDFATYYCQQYYIYPYTFGQGTKVEIKR
B16: SEQ ID NO: 10 light chain paired with Anti-HER2_D2 heavy chain control (SEQ ID NO: 92) (antibody, human IgG1, kappa, V domains shown)
VH: B1 VH with L103S
VL: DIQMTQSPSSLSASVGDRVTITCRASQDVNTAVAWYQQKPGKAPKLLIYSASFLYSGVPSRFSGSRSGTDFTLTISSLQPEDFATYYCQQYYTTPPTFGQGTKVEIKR
B17: SEQ ID NO: 9 light chain paired with Anti-HER2_D2 heavy chain control (SEQ ID NO: 92) (antibody, human IgG1, kappa, V domains shown)
VH: B1 VH with L103S
VL: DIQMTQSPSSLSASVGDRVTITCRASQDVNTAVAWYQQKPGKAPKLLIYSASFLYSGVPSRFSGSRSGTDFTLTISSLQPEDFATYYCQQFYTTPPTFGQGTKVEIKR
B18: SEQ ID NO: 10 light chain paired with anti-HER2_D2 heavy chain comprising the VH region of SEQ ID NO: 1 (antibody, V domains shown)
VH: B1 VH with G57Q, L103S
VL: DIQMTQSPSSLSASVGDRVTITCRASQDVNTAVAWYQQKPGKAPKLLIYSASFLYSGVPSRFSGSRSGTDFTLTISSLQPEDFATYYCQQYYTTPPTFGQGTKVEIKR
B19: SEQ ID NO: 10 light chain paired with anti-HER2_D2 heavy chain comprising the VH region of SEQ ID NO: 2 (antibody, V domains shown)
VH: B1 VH
VL: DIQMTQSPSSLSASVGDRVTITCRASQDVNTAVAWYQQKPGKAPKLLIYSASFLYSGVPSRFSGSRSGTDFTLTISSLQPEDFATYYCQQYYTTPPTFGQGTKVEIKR
B20: SEQ ID NO: 10 light chain paired with anti-HER2_D2 heavy chain comprising the VH region of SEQ ID NO: 3 (antibody, V domains shown)
VH: B1 VH with G57Q
VL: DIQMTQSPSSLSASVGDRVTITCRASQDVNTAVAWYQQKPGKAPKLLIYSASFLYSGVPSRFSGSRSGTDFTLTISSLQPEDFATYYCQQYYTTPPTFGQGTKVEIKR

Changes are numbered by the printed parent chain.

The first test has as its target T1, recombinant HER2 extracellular domain (ECD) (human, UniProt P04626 23-652).
T1 construct: extracellular domain; also called HER2 ECD
Description: SPR (Biacore 8K), antibody captured by anti-human Fab, HER2 ECD injected, 1:1 fit. On the technique in general: SPR reads the build-up and loss of mass on a sensor chip optically.
Description: (§1) HER2 extracellular domain (ECD) binding affinities of engineered anti-HER2 antibodies were measured by SPR using a Biacore 8K instrument. Antibodies were captured on Biacore™ Series S CM5 sensor chips immobilized with mouse anti-human Fab (human Fab capture kit from GE Healthcare) followed by injections of serial 3-fold dilutions of recombinant HER2 ECD at a flow rate of 30 μL/min. Each sample was analyzed using a 3-minute association followed by a 10-minute dissociation. After each injection, the sensor chip was regenerated using a 50 mM glycine pH2.0 regeneration buffer. A 1:1 Languir model of simultaneous fitting of kₒₙ and koff was used for kinetics analysis.
Turning to B1, the dissociation constant Kd was 28 nM.

As for B2, the Kd stood at 42 nM.

For B3, the dissociation constant Kd is 22.1 nM.

With B4, the Kd stood at 28 nM.

In the case of B5, the Kd stood at 28 nM.

In the case of B6, the Kd was 10.2 nM.

As for B7, the Kd was 21 nM.

Take B8: the Kd stood at 6.1 nM.

Regarding B9, the dissociation constant Kd was 9.8 nM.

Consider B10, for which the dissociation constant (Kd) was 17.5 nM.

Take B11: the Kd was determined as 35 nM.

B12: the Kd is 32.3 nM.

Consider B13, for which the Kd worked out at 30 nM.

With B14, the dissociation constant (Kd) is 18.3 nM.

Another test deals with T1, recombinant HER2 extracellular domain …. Nature of the test: SPR (Biacore 8K), antibody captured by anti-human Fab, HER2 ECD injected.
As to B15, the binding result was “no binding”.

The target is the same in another test. Description: SPR (Biacore 8K), antibody captured by anti-human Fab, HER2 ECD injected, 1:1 fit. The source holds these as a separate data set.
Description: as §1
As for B16, the dissociation constant (Kd) was determined as 14 nM.

Take B17: the dissociation constant (Kd) was determined as 13 nM.

A further test shares this target. Description: SPR (Biacore 8K), antibody captured by anti-human Fab, HER2 ECD injected, 1:1 fit; LC SEQ ID NO: 87 paired with Anti-HER2_D2 heavy chain control (SEQ ID NO: 92).
Description: as §1
In the case of B2, the Kd turned out to be 41 nM.

A further test has the same target. Nature of the test: SPR (Biacore 8K), antibody captured by anti-human Fab, HER2 ECD injected, 1:1 fit. The source holds these as a separate data set.
Description: as §1
Consider B18, for which the Kd was found to be 4.2 nM.

Turning to B19, the dissociation constant (Kd) is 6.2 nM.

With B20, the Kd came out at 2.1 nM.

As a reminder, the Kd is the equilibrium constant for the complex coming apart.
